Experiments:
[1] = molecular target: T1, human FAPα-His tag (Sino biological) (human, UniProt Q12884 26-760); experiment: ELISA, coated human FAPα-His
T1 construct: Bought protein; also called human FAPα-His protein; not shown: His tag
T1 sequence (looked up): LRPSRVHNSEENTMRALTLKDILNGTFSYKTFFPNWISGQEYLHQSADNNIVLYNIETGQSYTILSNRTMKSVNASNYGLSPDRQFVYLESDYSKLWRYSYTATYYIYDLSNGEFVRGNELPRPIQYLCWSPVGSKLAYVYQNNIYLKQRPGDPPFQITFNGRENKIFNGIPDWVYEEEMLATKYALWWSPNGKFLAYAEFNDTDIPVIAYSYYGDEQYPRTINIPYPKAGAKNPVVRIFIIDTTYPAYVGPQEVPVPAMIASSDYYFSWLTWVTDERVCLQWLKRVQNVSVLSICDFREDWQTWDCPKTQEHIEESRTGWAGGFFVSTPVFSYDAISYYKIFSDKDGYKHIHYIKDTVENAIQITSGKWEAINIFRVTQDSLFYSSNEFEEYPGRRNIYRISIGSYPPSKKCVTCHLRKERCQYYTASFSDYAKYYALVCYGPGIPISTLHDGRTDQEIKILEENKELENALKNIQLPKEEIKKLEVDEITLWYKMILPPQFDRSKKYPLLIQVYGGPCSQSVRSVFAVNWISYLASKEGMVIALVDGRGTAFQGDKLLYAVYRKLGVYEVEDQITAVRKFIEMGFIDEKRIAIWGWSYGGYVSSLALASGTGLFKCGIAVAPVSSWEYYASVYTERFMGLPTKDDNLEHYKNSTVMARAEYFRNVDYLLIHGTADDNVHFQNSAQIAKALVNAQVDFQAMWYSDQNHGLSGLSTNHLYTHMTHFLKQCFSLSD
Description: Briefly, microtiter plates were coated with human FAPα-His protein at 0.5 ug/ml in PBS, 100 μl/well at 4° C. overnight, then blocked with 150 μl/well of 1% BSA. Three-fold dilutions of tested antibodies starting from 1 μg/ml were added to each well and incubated for 1 hour at 37° C. The plates were washed with PBS/Tween and then incubated with Anti-Human IgG (H&L) (GOAT) Antibody Peroxidase Conjugated for 30 mins at 37° C. After washing, the plates were developed with TMB substrate and analyzed by spectrophotometer at OD 450 nm. […] FAP-4B9 clone from Roche was served as positive control which labeled as FAPα-BMK.

[2] = molecular target: T1, human FAPα-His tag (Sino biological); experiment: competitive ELISA on coated human FAPα; competitor (detected): FAP-G14-Bio
Description: (§1) Competitive ELISA was carried out to classify the FAPα mAbs based on the binding epitope to human FAPα.
(§2) Briefly, microtiter plates were coated with human FAPα proteins at 0.5 μg/ml in PBS, 100 μl/well at 4° C. overnight, then blocked with 150 μl/well of 1% BSA. Serial dilutions of chimeric antibodies as well as biotin-conjugated reference mAb were added to each well and incubated for 1 hour at RT. The plates were washed with PBS/Tween and then incubate with streptavidin-HRP for 15 mins at RT. After washing, the plates were developed with TMB substrate and analyzed by spectrophotometer at OD 450 nm. According to the competition ability to reference mAbs (Benchmark, or “BMK”), all tested FAPα mAbs binds to the similar epitope as shown in Table 5.

[3] = molecular target: T1, human FAPα-His tag (Sino biological); experiment: competitive ELISA on coated human FAPα; competitor (detected): FAP-G52-Bio
Description: as §2

[4] = molecular target: T1, human FAPα-His tag (Sino biological); experiment: competitive ELISA on coated human FAPα; competitor (detected): FAP-I30-Bio
Description: as §2

[5] = molecular target: T1, human FAPα-His tag (Sino biological); experiment: competitive ELISA on coated human FAPα; competitor (detected): FAP-I37-Bio
Description: as §1, §2

[6] = molecular target: T1, human FAPα-His tag (Sino biological); experiment: competitive ELISA on coated human FAPα; competitor (detected): FAP-I38-Bio
Description: as §2

[7] = molecular target: T1, human FAPα-His tag (Sino biological); experiment: competitive ELISA on coated human FAPα; competitor (detected): FAP-J40-Bio
Description: as §2

[8] = molecular target: T1, human FAPα-His tag (Sino biological); experiment: SPR (Biacore T200), mAb captured on Protein A chip, human FAPα-His as analyte
Description: The binding of the tested antibodies to recombinant FAPα protein (human FAPα-his tag) was tested with Biacore using a capture method. The mAbs were captured using Protein A chip. A serial dilution of human FAPα-his tag protein was injected over captured antibody for 3 mins at a flow rate of 30 μl/min. The antigen was allowed to dissociate for 800s. All the experiments were carried out on a Biacore T200. Data analysis was carried out using the Biacore T200 evaluation software.

[9] = molecular target: T1, human FAPα-His tag (Sino biological); experiment: competitive ELISA on coated human FAPα; competitor (detected): FAPα (BMK)-Bio
Description: as §2

mouse FAPα-His protein = molecular target: T2, mouse FAPα-His protein (mouse, UniProt P97321 26-761, limits assumed); experiment: ELISA, plate coated with mouse FAPα-His, anti-human IgG-HRP, OD 450 nm
T2 construct: not shown: His tag
T2 sequence (looked up): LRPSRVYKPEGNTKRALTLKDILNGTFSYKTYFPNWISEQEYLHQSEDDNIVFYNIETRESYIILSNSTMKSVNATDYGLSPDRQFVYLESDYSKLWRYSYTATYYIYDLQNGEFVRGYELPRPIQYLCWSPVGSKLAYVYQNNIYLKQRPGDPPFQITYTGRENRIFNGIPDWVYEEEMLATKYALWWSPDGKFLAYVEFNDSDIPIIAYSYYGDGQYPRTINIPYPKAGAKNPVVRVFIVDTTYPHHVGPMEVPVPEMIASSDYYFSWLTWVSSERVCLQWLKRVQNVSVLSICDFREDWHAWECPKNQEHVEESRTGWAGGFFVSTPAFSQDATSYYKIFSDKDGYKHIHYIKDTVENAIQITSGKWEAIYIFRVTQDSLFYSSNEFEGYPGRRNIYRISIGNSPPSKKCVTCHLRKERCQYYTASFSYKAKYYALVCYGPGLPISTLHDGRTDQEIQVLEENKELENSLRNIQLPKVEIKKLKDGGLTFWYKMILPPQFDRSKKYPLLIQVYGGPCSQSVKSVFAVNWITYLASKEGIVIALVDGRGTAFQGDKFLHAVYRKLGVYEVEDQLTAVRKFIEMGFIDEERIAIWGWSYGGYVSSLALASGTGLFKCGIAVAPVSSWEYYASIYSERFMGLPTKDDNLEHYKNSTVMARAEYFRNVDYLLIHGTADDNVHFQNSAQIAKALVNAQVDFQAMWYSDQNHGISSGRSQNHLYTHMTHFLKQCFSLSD
Description: Briefly, microtiter plates were coated with mouse FAPα-His protein at 0.5 ug/ml in PBS, 100 μl/well at 4° C. overnight, then blocked with 150 μl/well of 1% BSA. Three-fold dilutions of tested antibodies starting from 1 μg/ml were added to each well and incubated for 1 hour at 37° C. The plates were washed with PBS/Tween and then incubated with Anti-Human IgG (H&L) (GOAT) Antibody Peroxidase Conjugated for 30 mins at 37° C. After washing, the plates were developed with TMB substrate and analyzed by spectrophotometer at OD 450 nm.

[10] = molecular target: T1, human FAPα-His tag (Sino biological); experiment: competitive ELISA on coated human FAPα; biotinylated mAb alone, no competing Ab (row '0')
Description: as §2

[11] = molecular target: T3, human FAPα on CHO-K1-hFAPα cells (human, UniProt Q12884 1-760); experiment: flow cytometry on CHO-K1-hFAPα cells
T3 construct: whole, on cells; also called cell-surface FAPα
T3 sequence (looked up): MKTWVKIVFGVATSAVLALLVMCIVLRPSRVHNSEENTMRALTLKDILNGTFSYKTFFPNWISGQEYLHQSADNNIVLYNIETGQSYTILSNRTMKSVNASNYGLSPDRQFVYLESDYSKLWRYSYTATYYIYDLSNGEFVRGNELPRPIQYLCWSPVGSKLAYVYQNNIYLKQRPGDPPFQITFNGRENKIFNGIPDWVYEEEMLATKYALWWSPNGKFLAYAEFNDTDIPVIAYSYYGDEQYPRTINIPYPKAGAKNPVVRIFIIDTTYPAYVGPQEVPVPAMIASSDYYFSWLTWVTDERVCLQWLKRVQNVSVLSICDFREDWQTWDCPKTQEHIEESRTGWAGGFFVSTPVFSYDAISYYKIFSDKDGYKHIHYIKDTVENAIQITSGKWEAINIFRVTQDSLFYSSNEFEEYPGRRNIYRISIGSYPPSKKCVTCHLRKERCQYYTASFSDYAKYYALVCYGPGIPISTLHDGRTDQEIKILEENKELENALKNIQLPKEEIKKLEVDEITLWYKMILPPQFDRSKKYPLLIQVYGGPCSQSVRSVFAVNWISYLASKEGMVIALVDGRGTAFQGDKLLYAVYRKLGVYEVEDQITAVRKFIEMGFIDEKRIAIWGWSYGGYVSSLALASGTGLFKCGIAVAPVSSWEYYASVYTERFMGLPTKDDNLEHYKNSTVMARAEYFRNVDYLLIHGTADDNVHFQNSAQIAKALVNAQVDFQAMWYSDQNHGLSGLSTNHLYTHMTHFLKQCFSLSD
Description: (§3) To evaluate the cell-based binding property to human FAPα, the tested antibodies were analyzed for their binding to CHO-K1-hFAPα by FACS. A total number of 1×10⁵ CHO-K1-hFAPα cells in each well were incubated with 4-fold serial diluted antibodies starting from 3 μg/ml for 30 minutes at 4° C. in FACS buffer. After wash by FACS buffer, PE conjugated-anti-human IgG antibody was added to each well and incubated at 4° C. for 30 minutes. After wash, MFI of PE was evaluated by MACSQuant Analyzer 16.

[12] = molecular target: T3, human FAPα on CHO-K1-hFAPα cells; experiment: flow cytometry on CHO-K1-hFAPα cells (MFI of PE); parameters: unit not given beside the values
Description: as §3

B1: G52 (antibody, V domains shown)
VH: EVQLLESGGDLVQPGGSLRLSCAASGFTFSSYAMSWVRQAPGKGLEWVSGISNGGDSIAYADSVKGRFTVFRDNAKNTLYLQMNSLRAEDTAIYYCARGNYYAHDDWGQGTLVTVSA
VL: DIQLTQSPSSVSASVGDRVTITCRASQGVGSWLAWYQQKPGKPPKLLIYAASSLQSGVPSRFSGSGSGTDFTLTISSLQPEDFATYYCQQANSFPLTFGGGTKVEIK
notes: Tested as a mAb; also called FAP-G52; FAP-G52-Bio (biotin-conjugated form)
In the case of B1, the EC50 [1] is reported as 9.48 ng/mL, the “OD 450 nm” value [2] is reported as 0.358 OD 450 nm and the “OD 450 nm” value [3] is reported as 0.283 OD 450 nm. The “OD 450 nm” value [4] was 0.302 OD 450 nm, the “OD 450 nm” value [5] was 0.399 OD 450 nm and the “OD 450 nm” value [6] was 0.466 OD 450 nm. The “OD 450 nm” value [7] was 0.298 OD 450 nm, the Kd [8] was 0.446 nM and the koff [8] was 1.81e-05 s⁻¹. The kon [8] was 40500 M⁻¹ s⁻¹, the “OD 450 nm” value [9] was 0.304 OD 450 nm and the binding result (mouse FAPα-His protein) was “no binding (tested: 1000 ng/ml)”. For the same binder, the “OD 450 nm” value [10] was 1.26 OD 450 nm.

B2: I38 (antibody, V domains shown)
VH: EVQLVQSGAEVKEPGVSVKVSCKASGYTFASYGLSWVRLAPGQGLQWMGWISPYTPNPIYAPNFRDKVILTTDRSTNTAYLEVRSLRSDDTGLYYCARNHWVGRPTRAFDLWGQGTMVTVSA
VL: EIVLTQSPGTLSLSPGERATLSCRASQTVSITHLAWYQQKPGQAPRLLTYGASARATGIPDRFSVSGSGTDFTLTITRLEPEDFAVYYCQHYGSSITFGGGTKVEIK
notes: Tested as a mAb; also called FAP-I38
In the case of B2, the EC50 [1] is reported as 4.89 ng/mL, the EC50 [11] is reported as 0.026 ng/mL and the Cmax [12] is reported as 189. For the same binder, the “OD 450 nm” value [2] was 0.149 OD 450 nm, the “OD 450 nm” value [3] was 0.176 OD 450 nm and the “OD 450 nm” value [4] was 0.22 OD 450 nm. For the same binder, the “OD 450 nm” value [5] was 0.282 OD 450 nm, the “OD 450 nm” value [6] was 0.396 OD 450 nm and the “OD 450 nm” value [7] was 0.226 OD 450 nm. The Kd [8] was 1.12 nM, the koff [8] was 0.000116 s⁻¹ and the kon [8] was 103000 M⁻¹ s⁻¹. For the same binder, the “OD 450 nm” value [9] was 0.154 OD 450 nm and the “OD 450 nm” value [10] was 1.21 OD 450 nm.

B3: J59 (antibody, V domains shown)
VH: QVQLLESGGGVVQPGRSLRLSCAASGFTFSSYGMHWVRQAPGKGLEWVAVISYDGSNKYYADSVKGRFTISRDNSKNTLYLQMNSLRADDTAVYYCARESYTGLGSFLHWGQGTLVTVSA
VL: NIQLTQSPSSLSASVGDRVTITCRASQTISNYLNWYQQKPGKAPKLLISAASSLQGGVPSRFSGSGSGTDFTLAISSLQPEDSATYYCQYWGTFGQGTKLEIK
notes: Tested as a mAb
B3 gave an EC50 [1] of 3.94 ng/mL, an EC50 [11] of 0.029 ng/mL and a Cmax [12] of 149. The Kd [8] was 1.78 nM, the koff [8] was 0.000594 s⁻¹ and the kon [8] was 333000 M⁻¹ s⁻¹. B3: no binding (tested: 1000 ng/ml) (mouse FAPα-His protein).
